Measurements: US20140287419A1, “Compositions Having Dicamba Decarboxylase Activity and Methods of Use” (priority 2013, published 2014)
Substitutions are numbered along the chain they refer to.

B1: 9 (protein, listed as Octadecabacter antarcticus)
chain: MATPKITFEEHFMAPGFEKHSEAFLKLIPRDQAEILTRRLGDFDGERIETMDRGGITRSIISLTGPGTQGEAVEKAVSAAQGANDFLAEKISKKPDRLGGLATLPMHDPDAAARELNRAVNDLGLQGCLVNTHTHGAYYEGTDYDPFWAEVEKLGVPFYLHPSNAYVTPHVLGGMPVLQGATWGWGVETGSHALRILFGGVFDRFPDVKLVLGHMGEALPFLRWRYDSRFGAYPMGVSLDRAPSAYFGSNILITTSGVCSHPSLIGAIGEMGADAVMFSVDYPYEDTDLAVEFIETAPLEDATRVKICHDNAARLFGMPTLAAKEGA
B2: 17 (protein)
chain: MARGKIALEEAFEVKGMDEEIDAQAALYIAPKDVERYKRQIVSITDERLQLSDQNGIGYSILSLTVPGIQGITDKDKAEKRARDVNNYIHDQIKDHRDRLGAFAALSMHDPRQAGHELRRCVKELGFHGALLNDVQHTGEGDDDQPLFYDQPDYDEFWRVAVELDVPVYLHPAAPLRDTLIYKQSYEDRKYLVGPPQSYCNGVALHLMGIIVNGVFDRFPNLKVIVGHMGERIPFDFWRMDHWVKGVTRPLAEKNGDTVCQKEPLYYFKRNIYITTSGHFSTQNLRYLYEWLGDERMMFSVDFPYERMEHGCQWYDDDAEKIKEALGGRDGYLRVGRDNARRLFKLTKFKDCDAV
modifications: Aspergillus niger
B3: 22 (protein, listed as Staphylococcus epidermidis)
chain: MAKSINFEEHYVVDDIQKETMKYMSSDPNGVPMQTMLKGLEQKSGFTNADDITKHDERIKFMDEHDVEMQVLSYGNGAPSNLEGERAIELCQQANDTLAKYVNEHPDRFVGFATLPINEPQAAVEEFKRCIKELGFKGALIMGHPKNGFLDQDQYDDLFATAEALNVPIYLHPSPVQSDVYQAYYKGNYSDVTAATFACFGYGWHVDVGIHAIHLVLSGVFDRHPNLNMIIGHWGEFVPFFLERMDDILFADHLEHPISYYFKNNFYITPSGMLTKPQFDLVKAEVGVDRILYSADYPYVEPDKLGTFLDELDLTEEEKEKISYKNGAKLLGLEK
B4: 14 (protein, listed as Talaromyces marneffei)
chain: MARGKVSFEEAYEIPALADKSREQAALYIAPKDLDRYLSEIKSPTGGRLDISNKNGIGYTIYSLTVPGVQGIADKAKAEKHATDVNNWIYNEIKDHRDRMGAFAALSMHDPVQAGQELERCVKKLGFHGALLNNWQHAGTDGETYIFYDHPSYDVFWQKCVELDVPVYLHPSAPSGKVFDTFFKDRRYLIGPPISFAQDVALHTMGLITNGVFDRNPKLKLILGHLGERIPQDLWRTNHWLEDVERPLADSRGDTMSRKPLLYYFKNNIYVTTSGHFSTETVKFVCDYFGADRILFSVDSPYEKIEEGAGWYDKDKDNLTKALGGPQQYLDVGRENAKKLFKLGKYHDCDA
B5: 16 (protein, listed as Staphylococcus aureus)
chain: MAQNNMEANQMKSITFEEHYVIEDIQKETMNAISADPKGVPMKVMLEGLEKKTGFTNADELSHHDERIQFMNNQDVQIQVLSYGNGSPSNLVGQKAIELCQKANDQLANYIAQYPNRFVGFATLPINEPETAAREFERCINDLGFKGALIMGRAQDGFLDQDKYDIIFKTAENLGVPIYLHPAPVNSDIYQSYYKGNYPEVTAATFACFGYGWHIDVGIHAIHLVLSGIFDRYPKLNMIIGHWGEFIPFFLERMDEALFAEHLNHPVSYYFKNNFYITPSGMLTKPQFDLVKKEAGIDRILYAADYPYIEPEKLGVFLDELGLTDEEKEKISYTNGAKLLGLSSNN
B6: 12 (protein, listed as Zymoseptoria tritici)
chain: MALGKVAFEEAFALPRFKERTTWWAGLFAVDPEKHTREINDINKLRIEKMDQFGVGYTLLSYTAPGVQDVWQQEEADALAREVNDHVAAEIKGHEDRLGALATLSMHDPQTASAELRRCIKDYGFKGALVNDTQRNDESGTGMIFYDGPEWDVFWSTVQELDVPFYLHPRNPTGVFMEKLWAPRKWLVGPPLSFAQGVSLHLLGMVTNGTFDRFPNLQVIIGHLGEHLPFDLWRINHWFEDIKKPLGLDCKKTIREYFNENIWITTSGHFSTPTLEYCIKEIGAERILFSIDYPFEKFEDACDWYDGVELDGPDTVKKIGRENAKKLFKLGAFKDDSA
B7: 21 (protein, listed as Agrobacterium tumefaciens)
chain: MAQGKVALEEHFAIPETLQDSAGFVPGDYWKELQHRLLDIQDTRLKLMDAHGIETMILSLNAPAVQAIPDRKKAIEIARRANDVLAEECARRPDRFLAFAALPLQDPDAATQELQRCVNDLGFVGALVNGFSQEGDGQTPLYYDLPQYRPFWGEVEKLDVPFYLHPRNPLPQDSRIYDGHPWLLGPTWAFAQETAVHALRLMASGLFDAHPRLNIILGHMGEGLPYMMWRIDHRNAWVKLPPRYPAKRRFVDYFNENFHITTSGNFRTQTLIDAILEIGADRILFSTDWPFENIDHASDWFNATTIAEADRVKIGRTNARRLFKLDGR
B8: 15 (protein, listed as Metarhizium anisopliae)
chain: MAQEIAKSHETSTRFAGFAVLPMRDPEAAAKELERAVKKLGFVGALVDHKTAHGNGFCEGNEYDVLWRKAEQLAVPIYLHPSWPTEKQFQQAYAGNYSPTAAGTIGGAMFNWHSEVGHHVLRLYAAGVFDKFPKLKIIIGHFGEMIPYMLDRIREQDHRLGKTGRTFSEVYDENIWITTSGVWSLDPMRCILANTKIDHILYSVDYPFTMNERGLEWFQELEKSGLLSEEDLALIAYKNCEKLLGVKAPTQD
B9: 18 (protein, listed as Legionella pneumophila)
chain: MAIVDFETHFITEACIDYLTQRQEVPKLVPELNGAYTMCFTPDVSLFHTSALMEELLSLNEQRLAIMDQAGVTIQVLSLTTINGIDSCPGDENKSTALAREVNDQLYSAIQKHPERFKGFASISPYDVKEGVKELERAISQLGFVGWLTHSNFGQDNYLDDKIYWPLLEAAESLNIPIYLHPNVPIMREFGKYGFALGGSALGFEFDTALCLMRMILGGVFDAFPKLKIMLGHLGETMPFLMERLDHLYRIPDLKPYRPSIQRIPSEVLRQNVYITTSGRFFVPALRYVLEVMGEDRVLFASDYPMESLLDATRFIQDSDLSNQTKQKIFSINAKNLNLI
B10: 20 (protein, listed as Legionella pneumophila)
chain: B9 chain with E31D, K112R, I163T, S173G, P256A
B11: 23 (protein, listed as Aplysina aerophoba)
chain: MAIDIDARSQPGLETARRAMSRRDFLGGAAAFGITAAATTALPASTAAGEEEDLFLLGLEEHFATAELRRLNGIQFPQGTPRFDINDVGAGRIADMDAAGIDIQVLSALTPGAQNLPGAEGVAYARRLNSWVAHEVIPAYPGRFRAFATLPLSEPQAAADELEYAVRELGFLGCMTYGAVDGKFLDHADFVPVLARAETLDVPIYIHPNWASPQVMDTYYNGLGNEWVSRVLSGAGYGWHQEVALQCLRMIASGVFDRFPRLQIIVGHMGEGLPFFYWRFGDDLARITADTLEKPVQQYFHDNFWITTSAFFRDELLRLVLSVMGEDRVMFAVDYPFVSNKVGADWFRAVDLPRNVKEKIAHKNAERLLKIGPF
B12: 10 (protein, listed as Starkeya novella)
chain: MARKIALEEHFTTPELAGKYVARPTQSDALFADIERRLADFDELRLEMMDRAEIDLMVLSVTTPGVQGVRDTGEAIRLARGANDFLAREVQKRPSRYAGFAHLAMQDAEAAATELERAVRELGFRGALINGQTNGHYLDEDQYAPFWERVQELDVPVYLHPGNMADSPAMFAHRPELGGPIWAWTAETAAHALRLVFGGTFTRFPGAKVILGHMGETLPFLLWRLDSRREFDLGEKLAPDALPSAIIKRNIAVTTSGVCDPAPLVAALQALSDDNVMFSVDYPYEDPQLASKFIETAPIGEETRAKVCHGNAERLLGL
B13: 13 (protein, listed as Metarhizium acridum)
chain: MAHGKVALEEAFALPRLHEKTRWWASLFAVNPDKHAAEMTDITDIRINYMDKHGVGYTILSYTAPGVQDISDPKEAQALAVEINDYVAGAIKNHPDRFGAFATLSMRNPQEAATELKRCVTQYGFKGALVNDTQRAGEDDMIFYDGPEWDVFWSTVEELDVPFYLHPRNPTGSLYEKLWAKRKWLVGPPLSFAQGVSLHVLGMVTNGVFDRHPKLQVVLGHLGEHIPFDMWRINHWFEDVKKPLGLDCKKTIREYFQQNIWITTSGHFSTTTLQFCMAEVGADRILFSIDYPFECFADACDWYDGVPINLVDKAKIGRDNARRLFKLPEFKDSEKHVDA
B14: 11 (protein)
chain: MALGKIALEEAFALPRFEEKTRWWASLFSVDPETHVKEITDINKLRIEHADKYGVGYQILSYTAPGVQDIWDPVEAQALAVEINDYIAEQIRDKPDRFGAFATLSMHNPQEAASELRRCVQTYGFKGALVNDTQRAGPDGDDMIFYDNASWDIFWQTCTELDVPLYLHPRNPTGTIYEKLWADRKWLVGPPLSFAQGVSLHVLGMVTNGVFDRHPNLQLIMGHLGEHVPFDMWRINHWFEDRKKLLGLAETCKKTIREYFAQNIWITTSGHFSTTTLNFCMAEVGVDRILFSIDYPFETFEDACVWFDGAELNLSDKAKIGRDNAARLFKLGAFRDYDAKVKA
modifications: Aspergillus niger
B15: 19 (protein, listed as Talaromyces marneffei)
chain: MATPIITLEEHYISSAIRDASETDHYAVFPSQIISKLNTLSTERLQDLDNGHVSLQVISHGPGAQPPYLCQAANDELASAISANPTRFAGFALLPIAEPQLAVQELERCITQHKFVGALIDNHTNGQFYDDQKFWPVFEKAQELDAPIYVHPSYPDEESGVAAHYRGNYDDRIAAALGAYGWGWHSDTALSILRLFAAGLFDTYPNIKIIIGHMGEMLPFQLERVIGIASRFGRSRGLREVWTQNIWVTTSGMFALAPLACLLQTMPIERVLYSVDYPFSANEKGFAFLEEIKKSGLIKEGEDWERFLYKNAQELLKVNV

test: 14C assay with IPTG-induced recombinant E. coli cells (14CO2 capture from [14C]-carboxyl-labeled dicamba); settings: IPTG-induced recombinant E. coli cells; [14C]-carboxyl-labeled dicamba; 14CO2 capture

Molecule | Dicamba Decarboxylase Activity
B1 | No
B2 | Low
B3 | High
B4 | Low
B5 | High
B6 | No
B7 | High
B8 | Low
B9 | Low
B10 | Low
B11 | Low
B12 | Low
B13 | No
B14 | Low
B15 | High

same assay, conditions: dicamba decarboxylation activity of the protein of the given SEQ ID NO

Molecule | Enzymatic Detection level
B1 | No
B2 | Low
B3 | High
B4 | Low
B5 | High
B6 | No
B7 | High
B8 | Low
B9 | Low
B10 | Low
B11 | Low
B12 | Low
B13 | No
B14 | Low
B15 | High
